Reference: US20190233493A1 (Sanofi, published 2019)
*1 amine or outer side, *2 acyl side, *3 side chain or, on linkers, in order; H or OH if unused. Primed or numbered codes have the meaning given here. Side-chain parts run from the residue outwards. [ ]: non-standard residue; d: D form. The star is where a group is joined. TTDS″ = 4-[3-[2-[2-(3-aminopropoxy)ethoxy]ethoxy]propylamino]-4-oxo-butanoyl; TtdDga = O=C(COCC(=O)[*:2])NCCCOCCOCCOCCCN[*:1]; Docosanoyl = CCCCCCCCCCCCCCCCCCCCCC(=O)*; Arachidoyl = CCCCCCCCCCCCCCCCCCCC(=O)*; Heptadecanoyl = CCCCCCCCCCCCCCCCC(=O)*; γGlu = O=C(O)[C@H](CCC(=O)[*:2])N[*:1]; Pentadecanoyl = CCCCCCCCCCCCCCC(=O)*; Stearoyl = CCCCCCCCCCCCCCCCCC(=O)*; Palmitoyl = CCCCCCCCCCCCCCCC(=O)*; Myristoyl = CCCCCCCCCCCCCC(=O)*; αMeK = C[C@](N)(CCCCN)C(=O)O; Lauroyl = CCCCCCCCCCCC(=O)*; Nle = CCCC[C@H](N)C(=O)O; PEG2′ = PEG2 spacer unit; PEG2″ = not defined here; Aib = CC(C)(N)C(=O)O

Target: T1, RXFP1 receptor (UniProt Q9HBX9 1-757, limits assumed)
T1 sequence (looked up): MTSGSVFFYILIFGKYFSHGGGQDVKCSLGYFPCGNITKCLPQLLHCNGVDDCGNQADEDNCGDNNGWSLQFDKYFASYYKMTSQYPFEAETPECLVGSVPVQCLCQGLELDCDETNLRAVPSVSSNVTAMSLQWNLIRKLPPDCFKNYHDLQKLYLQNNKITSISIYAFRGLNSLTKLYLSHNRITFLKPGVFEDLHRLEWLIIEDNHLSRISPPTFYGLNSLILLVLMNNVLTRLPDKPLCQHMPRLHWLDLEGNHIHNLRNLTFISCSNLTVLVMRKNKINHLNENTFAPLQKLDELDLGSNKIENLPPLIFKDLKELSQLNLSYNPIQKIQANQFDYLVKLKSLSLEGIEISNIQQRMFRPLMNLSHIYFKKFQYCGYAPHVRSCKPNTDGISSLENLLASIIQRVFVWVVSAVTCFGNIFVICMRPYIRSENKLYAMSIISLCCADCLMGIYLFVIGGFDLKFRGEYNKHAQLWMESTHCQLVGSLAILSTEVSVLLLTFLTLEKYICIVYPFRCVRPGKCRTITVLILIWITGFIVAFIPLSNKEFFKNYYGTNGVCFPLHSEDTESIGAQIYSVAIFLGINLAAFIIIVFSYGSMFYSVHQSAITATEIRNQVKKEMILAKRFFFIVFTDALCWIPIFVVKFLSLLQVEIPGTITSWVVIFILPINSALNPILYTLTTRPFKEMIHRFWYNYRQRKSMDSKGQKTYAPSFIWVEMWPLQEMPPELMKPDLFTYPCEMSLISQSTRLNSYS
Assay: cell-based or functional assay

B1: peptide of SEQ ID NO: 159 (peptide)
peptide: Ac-LEGREKVRAK(Ac)I[Aib][Aib]EG[Nle]STFS[αMeK]RKK(Ac)[PEG2″][PEG2″][PEG2″][PEG2″][γGlu][γGlu]K([γGlu-γGlu-Palmitoyl])-NH2
In the case of B1, the “EC50 (nM), OVCAR 5 cells (cAMP)” value is reported as 0.02 nM and the “EMax, OVCAR 5 cells (cAMP)” value is reported as 88%.

B2: peptide of SEQ ID NO: 160 (peptide)
peptide: Ac-LEGREKVRAK(Ac)I[Aib][Aib]EG[Nle]STFSXRAK(Ac)[PEG2′][PEG2′][PEG2′][PEG2′][γGlu][γGlu]K([γGlu-γGlu-Palmitoyl])-NH2
modifications: not fully specified (some residues); printed as Ac-L-E-G-R-E-K-V-R-A-K(Ac)-I-Aib-Aib-E-G-Nle-S-T-F-S-Mly-R-A-K(Ac)-PEG2-PEG2-PEG2-PEG2-gE-gE-K(gE-gE-Palm)-NH2
For B2, the “EC50 (nM), OVCAR 5 cells (cAMP)” value was 0.28 nM and the “EMax, OVCAR 5 cells (cAMP)” value was 86%.

B3: peptide of SEQ ID NO: 161 (peptide)
peptide: Ac-LEGREKVRAK(Ac)I[Aib][Aib]EGQSTFS[αMeK]RAK(Ac)[PEG2′][PEG2′][PEG2′][PEG2′]K([γGlu-γGlu-γGlu-γGlu-Lauroyl])-NH2
B3 was tested, and the “EC50 (nM), OVCAR 5 cells (cAMP)” value was 12.1 nM and the “EMax, OVCAR 5 cells (cAMP)” value was 94%.

B4: peptide of SEQ ID NO: 163 (peptide)
peptide: Ac-LEGREKVRAK(Ac)I[Aib][Aib]EG[Nle]STWS[Aib]RKK(Ac)K([PEG2′-PEG2′-PEG2′-γGlu-γGlu-γGlu-Pentadecanoyl])-NH2
For B4, the “EC50 (nM), OVCAR 5 cells (cAMP)” value was 5.3 nM and the “EMax, OVCAR 5 cells (cAMP)” value was 87%.

B5: peptide of SEQ ID NO: 164 (peptide)
peptide: Ac-LEGREKVRAK(Ac)I[Aib][Aib]EG[Nle]STWS[Aib]RKK(Ac)K([PEG2′-PEG2′-PEG2′-γGlu-γGlu-γGlu-Heptadecanoyl])-NH2
With B5 the “EC50 (nM), OVCAR 5 cells (cAMP)” value was 0.79 nM and the “EMax, OVCAR 5 cells (cAMP)” value was 93%.

B6: peptide of SEQ ID NO: 165 (peptide)
peptide: Ac-LEGREKVRAK(Ac)I[Aib][Aib]EG[Nle]STWS[Aib]RKK(Ac)K([PEG2′-PEG2′-γGlu-γGlu-PEG2′-γGlu-Palmitoyl])-NH2
In the case of B6, the “EC50 (nM), OVCAR 5 cells (cAMP)” value is reported as 0.38 nM and the “EMax, OVCAR 5 cells (cAMP)” value is reported as 105%.

B7: peptide of SEQ ID NO: 17 (peptide)
peptide: Ac-LEGREKVRAK(Ac)I[Aib][Aib]EG[Nle]STWS[αMeK]RKK(Ac)[PEG2′][PEG2′][PEG2′]K([γGlu-γGlu-γGlu-γGlu-Palmitoyl])-NH2
B7 was tested, and the “EC50 (nM), OVCAR 5 cells (cAMP)” value was 0.17 nM and the “EMax, OVCAR 5 cells (cAMP)” value was 95%.

B8: peptide of SEQ ID NO: 166 (peptide)
peptide: Ac-LEGREKVRAK(Ac)I[Aib][Aib]EG[Nle]STWS[Aib]RKK(Ac)K([TTDS″-TTDS″-γGlu-γGlu-γGlu-Palmitoyl])-NH2
In the case of B8, the “EC50 (nM), OVCAR 5 cells (cAMP)” value is reported as 0.26 nM and the “EMax, OVCAR 5 cells (cAMP)” value is reported as 92%.

B9: peptide of SEQ ID NO: 167 (peptide)
peptide: Ac-LEGREKVRAK(Ac)I[Aib][Aib]EG[Nle]STFS[αMeK]RAK(Ac)[PEG2′][PEG2′][PEG2′][PEG2′]K([γGlu-γGlu-γGlu-γGlu-Pentadecanoyl])-NH2
B9 was tested, and the “EC50 (nM), OVCAR 5 cells (cAMP)” value was 0.05 nM and the “EMax, OVCAR 5 cells (cAMP)” value was 93%.

B10: peptide of SEQ ID NO: 168 (peptide)
peptide: Ac-LEGREKVRAK(Ac)I[Aib][Aib]EG[Nle]STFSXRAK(Ac)[PEG2′][PEG2′][PEG2′][PEG2′][γGlu][γGlu]K([γGlu-γGlu-Pentadecanoyl])-NH2
modifications: not fully specified (some residues); printed as Ac-L-E-G-R-E-K-V-R-A-K(Ac)-I-Aib-Aib-E-G-Nle-S-T-F-S-Mly-R-A-K(Ac)-PEG2-PEG2-PEG2-PEG2-gE-gE-K(gE-gE-Penta)-NH2
B10 was tested, and the “EC50 (nM), OVCAR 5 cells (cAMP)” value was 0.06 nM and the “EMax, OVCAR 5 cells (cAMP)” value was 91%.

B11: peptide of SEQ ID NO: 170 (peptide)
peptide: Ac-LEGREKVRAK(Ac)I[Aib][Aib]EGQSTFS[αMeK]RAK(Ac)[PEG2′][PEG2′][PEG2′][PEG2′]K([γGlu-γGlu-γGlu-γGlu-Palmitoyl])-NH2
With B11 the “EC50 (nM), OVCAR 5 cells (cAMP)” value was 0.01 nM and the “EMax, OVCAR 5 cells (cAMP)” value was 87%.

B12: peptide of SEQ ID NO: 171 (peptide)
peptide: Ac-LEGREKVRAK(Ac)I[Aib][Aib]EG[Nle]STWS[Aib]RKK(Ac)K([PEG2′-PEG2′-PEG2′-γGlu-γGlu-γGlu-Arachidoyl])-NH2
B12 was tested, and the “EC50 (nM), OVCAR 5 cells (cAMP)” value was 0.18 nM and the “EMax, OVCAR 5 cells (cAMP)” value was 83%.

B13: peptide of SEQ ID NO: 172 (peptide)
peptide: Ac-LEGREKVRAK(Ac)I[Aib][Aib]EG[Nle]STFS[αMeK]RAK(Ac)[PEG2′][PEG2′][PEG2′][PEG2′]K([γGlu-γGlu-γGlu-γGlu-Myristoyl])-NH2
In the case of B13, the “EC50 (nM), OVCAR 5 cells (cAMP)” value is reported as 0.56 nM and the “EMax, OVCAR 5 cells (cAMP)” value is reported as 95%.

B14: peptide of SEQ ID NO: 173 (peptide)
peptide: Ac-LEGREKVRAK(Ac)I[Aib][Aib]EG[Nle]STWS[Aib]RKK(Ac)K([PEG2′-PEG2′-PEG2′-γGlu-γGlu-γGlu-Docosanoyl])-NH2
With B14 the “EC50 (nM), OVCAR 5 cells (cAMP)” value was 0.19 nM and the “EMax, OVCAR 5 cells (cAMP)” value was 85%.

B15: peptide of SEQ ID NO: 174 (peptide)
peptide: Ac-LEGREKVRAQI[Aib][Aib]EG[Nle]STWS[Aib]RKKK([PEG2′-PEG2′-PEG2′-γGlu-γGlu-γGlu-Stearoyl])-NH2
For B15, the “EMax, OVCAR 5 cells (cAMP)” value was 88%.

B16: peptide of SEQ ID NO: 175 (peptide)
peptide: Ac-LEGREKVRAK(Ac)I[Aib][Aib]EG[Nle]STWS[Aib]RKK(Ac)[TtdDga]K([γGlu-γGlu-γGlu-Palmitoyl])-NH2
SMILES: CCCCCCCCCCCCCCCC(=O)N[C@@H](CCC(=O)N[C@@H](CCC(=O)N[C@@H](CCC(=O)NCCCC[C@H](NC(=O)COCC(=O)NCCCOCCOCCOCCCNC(=O)[C@H](CCCCNC(C)=O)NC(=O)[C@H](CCCCN)NC(=O)[C@H](CCCNC(=N)N)NC(=O)C(C)(C)NC(=O)[C@H](CO)NC(=O)[C@H](Cc1c[nH]c2ccccc12)NC(=O)[C@@H](NC(=O)[C@H](CO)NC(=O)[C@H](CCCC)NC(=O)CNC(=O)[C@H](CCC(=O)O)NC(=O)C(C)(C)NC(=O)C(C)(C)NC(=O)[C@@H](NC(=O)[C@H](CCCCNC(C)=O)NC(=O)[C@H](C)NC(=O)[C@H](CCCNC(=N)N)NC(=O)[C@@H](NC(=O)[C@H](CCCCN)NC(=O)[C@H](CCC(=O)O)NC(=O)[C@H](CCCNC(=N)N)NC(=O)CNC(=O)[C@H](CCC(=O)O)NC(=O)[C@H](CC(C)C)NC(C)=O)C(C)C)[C@@H](C)CC)[C@@H](C)O)C(N)=O)C(=O)O)C(=O)O)C(=O)O
In the case of B16, the “EC50 (nM), OVCAR 5 cells (cAMP)” value is reported as 2.21 nM and the “EMax, OVCAR 5 cells (cAMP)” value is reported as 87%.

B17: peptide of SEQ ID NO: 18 (peptide)
peptide: Ac-LEGREKVRAK(Ac)I[Aib][Aib]EG[Nle]STWS[Aib]RKK(Ac)[TtdDga]K([γGlu-γGlu-γGlu-Stearoyl])-NH2
SMILES: CCCCCCCCCCCCCCCCCC(=O)N[C@@H](CCC(=O)N[C@@H](CCC(=O)N[C@@H](CCC(=O)NCCCC[C@H](NC(=O)COCC(=O)NCCCOCCOCCOCCCNC(=O)[C@H](CCCCNC(C)=O)NC(=O)[C@H](CCCCN)NC(=O)[C@H](CCCNC(=N)N)NC(=O)C(C)(C)NC(=O)[C@H](CO)NC(=O)[C@H](Cc1c[nH]c2ccccc12)NC(=O)[C@@H](NC(=O)[C@H](CO)NC(=O)[C@H](CCCC)NC(=O)CNC(=O)[C@H](CCC(=O)O)NC(=O)C(C)(C)NC(=O)C(C)(C)NC(=O)[C@@H](NC(=O)[C@H](CCCCNC(C)=O)NC(=O)[C@H](C)NC(=O)[C@H](CCCNC(=N)N)NC(=O)[C@@H](NC(=O)[C@H](CCCCN)NC(=O)[C@H](CCC(=O)O)NC(=O)[C@H](CCCNC(=N)N)NC(=O)CNC(=O)[C@H](CCC(=O)O)NC(=O)[C@H](CC(C)C)NC(C)=O)C(C)C)[C@@H](C)CC)[C@@H](C)O)C(N)=O)C(=O)O)C(=O)O)C(=O)O
With B17 the “EC50 (nM), OVCAR 5 cells (cAMP)” value was 0.41 nM and the “EMax, OVCAR 5 cells (cAMP)” value was 83%.

B18: peptide of SEQ ID NO: 176 (peptide)
peptide: Ac-LEGREKVRAK(Ac)I[Aib][Aib]EGQSTWS[Aib]RKK(Ac)[TtdDga]K([γGlu-γGlu-γGlu-Palmitoyl])-NH2
SMILES: CCCCCCCCCCCCCCCC(=O)N[C@@H](CCC(=O)N[C@@H](CCC(=O)N[C@@H](CCC(=O)NCCCC[C@H](NC(=O)COCC(=O)NCCCOCCOCCOCCCNC(=O)[C@H](CCCCNC(C)=O)NC(=O)[C@H](CCCCN)NC(=O)[C@H](CCCNC(=N)N)NC(=O)C(C)(C)NC(=O)[C@H](CO)NC(=O)[C@H](Cc1c[nH]c2ccccc12)NC(=O)[C@@H](NC(=O)[C@H](CO)NC(=O)[C@H](CCC(N)=O)NC(=O)CNC(=O)[C@H](CCC(=O)O)NC(=O)C(C)(C)NC(=O)C(C)(C)NC(=O)[C@@H](NC(=O)[C@H](CCCCNC(C)=O)NC(=O)[C@H](C)NC(=O)[C@H](CCCNC(=N)N)NC(=O)[C@@H](NC(=O)[C@H](CCCCN)NC(=O)[C@H](CCC(=O)O)NC(=O)[C@H](CCCNC(=N)N)NC(=O)CNC(=O)[C@H](CCC(=O)O)NC(=O)[C@H](CC(C)C)NC(C)=O)C(C)C)[C@@H](C)CC)[C@@H](C)O)C(N)=O)C(=O)O)C(=O)O)C(=O)O
B18 was tested, and the “EC50 (nM), OVCAR 5 cells (cAMP)” value was 3 nM and the “EMax, OVCAR 5 cells (cAMP)” value was 90%.
